The labels stand for the following.
B1: PDZ and LIM domain protein 2, residues 284 to 339; numbered along this chain, Q96JY6 (parent)
chain: HTCEKCSTSIANQAVRIQEGRYRHPGCYTCADCGLNLKMRGHFWVGDELYCEKHAR

± gives the uncertainty stated by the source.

In this data set the parent is B1. Put plainly: abundance fitness (aPCA) (normalised: wild type 0, dead -1); higher = more abundant; growth selection in yeast, the domain comes from the species named. As to conditions: Homo sapiens.
In the case of HTCEKCSTSIANQAVRIQEGRYRHPGCYTCADCGLNLWMRGHFWVGDELYCEKHAR [K38W], the abundance fitness was -0.445 ± 0.13.

Consider HTCEKCSTSIANQAVRIQEGRYRHPGCYTCADCGLNLVMRGHFWVGDELYCEKHAR [K38V], for which the abundance fitness is -0.447 ± 0.098.

Consider HTCEKCSTSIANQAVRIQEGRYRHPGCYTCADCGLNLTMRGHFWVGDELYCEKHAR [K38T], for which the abundance fitness is -0.115 ± 0.12.

Turning to HTCEKCSTSIANQAVRIQEGRYRHPGCYTCADCGLNLQMRGHFWVGDELYCEKHAR [K38Q], the abundance fitness is -0.263 ± 0.16.

On to HTCEKCSTSIANQAVRIQEGRYRHPGCYTCADCGLNLFMRGHFWVGDELYCEKHAR [K38F], for which the abundance fitness was -0.495 ± 0.17.

HTCEKCSTSIANQAVRIQEGRYRHPGCYTCADCGLNLHMRGHFWVGDELYCEKHAR [K38H]: the abundance fitness is -0.197 ± 0.16.

In the case of HTCEKCSTSIANQAVRIQEGRYRHPGCYTCADCGLNLNMRGHFWVGDELYCEKHAR [K38N], the abundance fitness is -0.124 ± 0.15.

As for HTCEKCSTSIANQAVRIQEGRYRHPGCYTCADCGLNLLMRGHFWVGDELYCEKHAR [K38L], the abundance fitness was -0.702 ± 0.1.

With HTCEKCSTSIANQAVRIQEGRYRHPGCYTCADCGLNLRMRGHFWVGDELYCEKHAR [K38R], the abundance fitness was -0.366 ± 0.076.

As for HTCEKCSTSIANQAVRIQEGRYRHPGCYTCADCGLNLMMRGHFWVGDELYCEKHAR [K38M], the abundance fitness was -0.08 ± 0.098.

In the case of HTCEKCSTSIANQAVRIQEGRYRHPGCYTCADCGLNLIMRGHFWVGDELYCEKHAR [K38I], the abundance fitness was -0.703 ± 0.22.

With HTCEKCSTSIANQAVRIQEGRYRHPGCYTCADCGLNLGMRGHFWVGDELYCEKHAR [K38G], the abundance fitness turned out to be 0.103 ± 0.056.

Regarding HTCEKCSTSIANQAVRIQEGRYRHPGCYTCADCGLNLEMRGHFWVGDELYCEKHAR [K38E], the abundance fitness stood at 0.311 ± 0.071.

As to HTCEKCSTSIANQAVRIQEGRYRHPGCYTCADCGLNLSMRGHFWVGDELYCEKHAR [K38S], the abundance fitness turned out to be 0.056 ± 0.076.

In the case of HTCEKCSTSIANQAVRIQEGRYRHPGCYTCADCGLNLCMRGHFWVGDELYCEKHAR [K38C], the abundance fitness is -0.24 ± 0.083.

With HTCEKCSTSIANQAVRIQEGRYRHPGCYTCADCGLNLAMRGHFWVGDELYCEKHAR [K38A], the abundance fitness turned out to be 0.189 ± 0.1.

HTCEKCSTSIANQAVRIQEGRYRHPGCYTCADCGLNEKMRGHFWVGDELYCEKHAR [L37E]: the abundance fitness was -0.407 ± 0.068.

Turning to HTCEKCSTSIANQAVRIQEGRYRHPGCYTCADCGLNVKMRGHFWVGDELYCEKHAR [L37V], the abundance fitness was -0.109 ± 0.064.

As for HTCEKCSTSIANQAVRIQEGRYRHPGCYTCADCGLNDKMRGHFWVGDELYCEKHAR [L37D], the abundance fitness was -0.249 ± 0.14.

Turning to HTCEKCSTSIANQAVRIQEGRYRHPGCYTCADCGLNCKMRGHFWVGDELYCEKHAR [L37C], the abundance fitness was -0.3 ± 0.13.

Take HTCEKCSTSIANQAVRIQEGRYRHPGCYTCADCGLNGKMRGHFWVGDELYCEKHAR [L37G]: the abundance fitness is -0.288 ± 0.075.

For HTCEKCSTSIANQAVRIQEGRYRHPGCYTCADCGLNRKMRGHFWVGDELYCEKHAR [L37R], the abundance fitness was -0.565 ± 0.076.

With HTCEKCSTSIANQAVRIQEGRYRHPGCYTCADCGLNQKMRGHFWVGDELYCEKHAR [L37Q], the abundance fitness is -0.599 ± 0.1.

Consider HTCEKCSTSIANQAVRIQEGRYRHPGCYTCADCGLNAKMRGHFWVGDELYCEKHAR [L37A], for which the abundance fitness is -0.601 ± 0.071.

For HTCEKCSTSIANQAVRIQEGRYRHPGCYTCADCGLNTKMRGHFWVGDELYCEKHAR [L37T], the abundance fitness is -0.395 ± 0.12.

HTCEKCSTSIANQAVRIQEGRYRHPGCYTCADCGLNKKMRGHFWVGDELYCEKHAR [L37K]: the abundance fitness was -0.502 ± 0.14.

With HTCEKCSTSIANQAVRIQEGRYRHPGCYTCADCGLNIKMRGHFWVGDELYCEKHAR [L37I], the abundance fitness is -0.322 ± 0.23.

As to HTCEKCSTSIANQAVRIQEGRYRHPGCYTCADCGLNSKMRGHFWVGDELYCEKHAR [L37S], the abundance fitness is -0.614 ± 0.12.

Consider HTCEKCSTSIANQAVRIQEGRYRHPGCYTCADCGLNHKMRGHFWVGDELYCEKHAR [L37H], for which the abundance fitness is -0.807 ± 0.17.

As for HTCEKCSTSIANQAVRIQEGRYRHPGCYTCADCGLNYKMRGHFWVGDELYCEKHAR [L37Y], the abundance fitness is -0.38 ± 0.17.

Turning to HTCEKCSTSIANQAVRIQEGRYRHPGCYTCADCGLNWKMRGHFWVGDELYCEKHAR [L37W], the abundance fitness is -0.731 ± 0.17.

As to HTCEKCSTSIANQAVRIQEGRYRHPGCYTCADCGLNPKMRGHFWVGDELYCEKHAR [L37P], the abundance fitness is -0.442 ± 0.14.

Take HTCEKCSTSIANQAVRIQEGRYRHPGCYTCADCGLNFKMRGHFWVGDELYCEKHAR [L37F]: the abundance fitness is -0.262 ± 0.22.

HTCEKCSTSIANQAVRIQEGRYRHPGCYTCADCGLNMKMRGHFWVGDELYCEKHAR [L37M]: the abundance fitness was -0.178 ± 0.1.

For HTCEKCSTSIANQAVRIQEGRYRHPGCYTCADCHLNLKMRGHFWVGDELYCEKHAR [G34H], the abundance fitness is 0.2 ± 0.17.

Regarding HTCEKCSTSIANQAVRIQEGRYRHPGCYTCADCCLNLKMRGHFWVGDELYCEKHAR [G34C], the abundance fitness was -0.413 ± 0.1.

As for HTCEKCSTSIANQAVRIQEGRYRHPGCYTCADCALNLKMRGHFWVGDELYCEKHAR [G34A], the abundance fitness is -0.09 ± 0.09.

For the variant HTCEKCSTSIANQAVRIQEGRYRHPGCYTCADCTLNLKMRGHFWVGDELYCEKHAR [G34T], the abundance fitness was -0.177 ± 0.1.

With HTCEKCSTSIANQAVRIQEGRYRHPGCYTCADCPLNLKMRGHFWVGDELYCEKHAR [G34P], the abundance fitness is -0.356 ± 0.073.

For the variant HTCEKCSTSIANQAVRIQEGRYRHPGCYTCADCFLNLKMRGHFWVGDELYCEKHAR [G34F], the abundance fitness was -0.196 ± 0.13.

As for HTCEKCSTSIANQAVRIQEGRYRHPGCYTCADCWLNLKMRGHFWVGDELYCEKHAR [G34W], the abundance fitness was -0.799 ± 0.14.

With HTCEKCSTSIANQAVRIQEGRYRHPGCYTCADCNLNLKMRGHFWVGDELYCEKHAR [G34N], the abundance fitness stood at 0.108 ± 0.13.

In the case of HTCEKCSTSIANQAVRIQEGRYRHPGCYTCADCYLNLKMRGHFWVGDELYCEKHAR [G34Y], the abundance fitness was -0.331 ± 0.13.

As for HTCEKCSTSIANQAVRIQEGRYRHPGCYTCADCSLNLKMRGHFWVGDELYCEKHAR [G34S], the abundance fitness came out at 0.024 ± 0.076.

In the case of HTCEKCSTSIANQAVRIQEGRYRHPGCYTCADCQLNLKMRGHFWVGDELYCEKHAR [G34Q], the abundance fitness is -0.03 ± 0.12.

HTCEKCSTSIANQAVRIQEGRYRHPGCYTCADCILNLKMRGHFWVGDELYCEKHAR [G34I]: the abundance fitness is -0.352 ± 0.2.

HTCEKCSTSIANQAVRIQEGRYRHPGCYTCADCELNLKMRGHFWVGDELYCEKHAR [G34E]: the abundance fitness is -0.146 ± 0.16.

The values are drawn from the Human Domainome abundance scans (Beltran et al. 2025).
